The data set deals with the molecule itself. Kind of data set: aggregation kinetics by turbidity.

B1: HET-s prion forming domain (PFD), HET-s(218-289) (domain or fragment, Podospora anserina, UniProt Q03689 218-289, looked up)
chain: KIDAIVGRNSAKDIRTEERARVQLGNVVTAAALHGGIRISDQTTNSVETVVGKGESRVLIGNEYGGKGFWDN
notes: also called HET-s PFD
For the protein B1, the binding result is listed as “binds”.

The values are drawn from PMC2774669 (Microbial Cell Factories, 2009).
